B1: 12D5 (antibody, V domains shown)
VH: QVQLKESGPGLVAPSQSLSITCTVSGFSLNEYGVSWIRQPPGKGLEWLGVIWGGRDTYYHSPLKSRLSITKDNSKSQVFLKMNSLQTDDTAMYYCAKHEGMDYWGQGTSVTVSS
VL: DIVMTQSQKFMSTSVGDRVSVTCKASQNVVTNVAWYQHKPGHSPKPLIYSASYRYSGVPDRFTGSGSGTDFTLTINNVQSEDLAEYFCHQYNNFPLTFGAGTKLELK
B2: 13F5 (antibody, V domains shown)
VH: QAQLQQPGAVLVRPGASVKLSCKASSYSFTDYWMNWVKRRPGQGLQWIGLIHPSDSETRLDQNFKDKATLTVDKFSSTAYMQLNSPTSEDSAVYYCTRSVIYYGNYRWYFDVWGAGTTVTVSS
VL: DVLMTQTPLSLPVSLGDQASISCRSSQTIIHSNGNTYLEWYLQKPGQSPKLLIYKVSNRFSGVPDRFSGSGSGTDFTLKISRVEAEDLGVYYCFQGSHVPYTFGGGTKLEIK
notes: also called hybridoma CNCM I-3193
B3: 12B1 (antibody, V domains shown)
VH: QVQLKESGPDLVAPSQSLSITCTVSGFSLTNYGVHWVRQFPGKGLEWLGVIWAGGNTNYNSALMSRLTISKDNSKSQVFLKMNSLQTDDTAVYYCAREYGSTYVAWFAHWGQGTLVTVSS
VL: ENVLTQSPAIMSASPGEKVTMTCGASSSVSSSFLHWYQQKSGASPKLWIYSTSNLASGVPTRFSGSGSGTSYSLTISSVEAEDAATYYCQQYSGYPLTFGAGTKLELK
B4: 2D10 (antibody, V domains shown)
VH: EVNLVESGGILVKPGGSLRLSCAASGFTFSNYAMSWVRQTPEKRLEWVASIGSAGYIHYPDSVKGRFTISRDNARNILYLQMSSLRSEDTAMYYCAREGGLVWFAYWGQGTLVTVSA
VL: ETTVTQSPASLSVATGEKVTIRCITSTDIDDDMNWYQQKPGEPPKLLISEGNTLRPGVPSRFSSSGYGTDFVLTIENTLSEDVADYYCLQSDKMPLTFGAGTKLELK
notes: also called hybridoma CNCM I-3214

What was measured:
[1] = molecular target: human insulin-like growth factor I receptor IGF-IR (human) (UniProt P08069); assay: displacement of [125I]IGF-1 on R+ intact cells expressing IGF-IR
[2] = molecular target: T1, human insulin-like growth factor I receptor IGF-IR (human, UniProt P08069 31-1367); assay: cell-based or functional assay
[3] = molecular target: T1, human insulin-like growth factor I …; assay: displacement of [125I]IGF-1 on R+ intact cells expressing IGF-IR
[4] = molecular target: T2, Hybrid-RsA (insulin/IGF-I hybrid receptor with IR isoform A) (human, UniProt P08069 31-1367; P06213 28-1370); assay: displacement of [125I]-IGF1 on immunocaptured Hybrid-RsA
T2 construct: Heterodimer of an IGF-IR half and an IR-A half, captured on plates coated with antibody 83-7; also called HR-A; hybrid receptors A

| Molecule | IC50 [1] [nM] | proliferative index of MCF-7 cells at 50 ng/ml IGF1, antibody 5 µg/ml [2] | IC50 [3] [nM] | IC50 [4] [nM] |
| --- | --- | --- | --- | --- |
| αIR3 (antibody) | 0.05 |  |  |  |
| B1 |  | < 5 |  |  |
| B2 |  | < 5 | 0.2 | 0.35 |
| B3 |  | < 5 |  |  |
| B4 |  | < 5 | 0.15 | 0.2 |

From US20110091479A1 (PIERRE FABRE MEDICAMENT, published 2011)
